The results in this text go back to patent US20210356479A1 (BLOODWORKS, published 2021).

T1: human Kell glycoprotein, k form (KEL2) (human, UniProt P23276 1-732)
T1 construct: whole, on cells; On human k/k or K-k+ RBCs; also called k antigen
T1 sequence (looked up): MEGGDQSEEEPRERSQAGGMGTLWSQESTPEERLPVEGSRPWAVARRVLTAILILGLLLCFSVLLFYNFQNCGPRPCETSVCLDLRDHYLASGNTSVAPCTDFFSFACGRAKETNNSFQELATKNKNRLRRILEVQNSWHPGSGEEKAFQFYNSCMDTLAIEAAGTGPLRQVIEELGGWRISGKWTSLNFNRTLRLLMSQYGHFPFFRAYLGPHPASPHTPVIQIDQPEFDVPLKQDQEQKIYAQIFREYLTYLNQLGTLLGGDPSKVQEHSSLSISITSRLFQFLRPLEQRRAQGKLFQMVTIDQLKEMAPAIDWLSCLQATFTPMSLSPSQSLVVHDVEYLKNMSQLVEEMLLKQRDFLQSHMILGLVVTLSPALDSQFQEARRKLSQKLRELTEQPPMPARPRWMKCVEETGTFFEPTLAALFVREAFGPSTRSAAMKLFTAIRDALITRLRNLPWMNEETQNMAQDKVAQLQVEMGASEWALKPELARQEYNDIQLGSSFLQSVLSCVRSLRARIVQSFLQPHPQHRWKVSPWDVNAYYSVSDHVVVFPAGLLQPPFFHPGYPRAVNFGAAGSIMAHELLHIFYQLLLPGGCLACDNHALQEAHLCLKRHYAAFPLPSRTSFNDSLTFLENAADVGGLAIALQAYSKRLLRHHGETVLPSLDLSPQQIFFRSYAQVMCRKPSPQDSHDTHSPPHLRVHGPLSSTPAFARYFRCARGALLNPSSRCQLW

T2: human Kell glycoprotein, K form (KEL1) (human, UniProt P23276 1-732)
T2 construct: whole, on cells; On human K/K or K+k+ RBCs and on RBCs of K transgenic mice; also called K antigen; K variant
T2 sequence (looked up): T1 sequence (looked up) with T193M

B1: PUMA 1 human IgG1-03 isoallotype (antibody)
heavy: EVQLQQSGPELVKPGASVKMSCKASGYTFTDYYMKWVKQSHGKSLEWIGDLNPNNGDTFYNQKFKGKATLTVDKSSSTAYIQLNSLTSEDSAVYYCAREAGSSFGSSCNYWGQGTTLTVS
light: SVVMTQTPKFLLVSAGDRVTITCKASQTVSKDVAWYQQQPGQSPKLLIYYASNRYTGVPDRFTGSGYGTDFTFTISTVQAEDLAVYFCQQDYSSPYTFGGGTKLEIK
notes: Isoallotype named in CLM-00007; not shown: human IgG1 heavy chain constant region, isoallotype IGHG1*03; human kappa light chain constant region (vector pFUSE2-CLIg-hk)
B2: PUMA 1 human IgG2-04 isoallotype (antibody)
heavy: B1 heavy
light: B1 light
notes: Isoallotype named in CLM-00007; not shown: human IgG2 heavy chain constant region, isoallotype IGHG2*04; human kappa light chain constant region (vector pFUSE2-CLIg-hk)
B3: PUMA 1 human IgG3-04 isoallotype (antibody)
heavy: B1 heavy
light: B1 light
notes: Isoallotype named in CLM-00007; not shown: human IgG3 heavy chain constant region, isoallotype IGHG3*04; human kappa light chain constant region (vector pFUSE2-CLIg-hk)
B4: PUMA 1 human IgG1-05 isoallotype (antibody)
heavy: B1 heavy
light: B1 light
notes: Isoallotype named in CLM-00007; not shown: human IgG1 heavy chain constant region, isoallotype IGHG1*05; human kappa light chain constant region (vector pFUSE2-CLIg-hk)
B5: PUMA 1 human IgG3 (canonical, isoallotype IgG3-01) (antibody)
heavy: EVQLQQSGPELVKPGASVKMSCKASGYTFTDYYMKWVKQSHGKSLEWIGDLNPNNGDTFYNQKFKGKATLTVDKSSSTAYIQLNSLTSEDSAVYYCAREAGSSFGSSCNYWGQGTTLTVSASTKGPSVFPLAPCSRSTSGGTAALGCLVKDYFPEPVTVSWNSGALTSGVHTFPAVLQSSGLYSLSSVVTVPSSSLGTQTYTCNVNHKPSNTKVDKRVELKTPLGDTTHTCPRCPEPKSCDTPPPCPRCPEPKSCDTPPPCPRCPEPKSCDTPPPCPRCPAPELLGGPSVFLFPPKPKDTLMISRTPEVTCVVVDVSHEDPEVQFKWYVDGVEVHNAKTKPREEQYNSTFRVVSVLTVLHQDWLNGKEYKCKVSNKALPAPIEKTISKTKGQPREPQVYTLPPSREEMTKNQVSLTCLVKGFYPSDIAVEWESSGQPENNYNTTPPMLDSDGSFFLYSKLTVDKSRWQQGNIFSCSVMHEALHNRFTQKSLSLSPGK
light: B1 light
notes: also called PUMA1-IgG3; PUMA 1 IgG3; not shown: human kappa light chain constant region (vector pFUSE2-CLIg-hk)
B6: PUMA 1 human IgG2-06 isoallotype (antibody)
heavy: B1 heavy
light: B1 light
notes: Isoallotype named in CLM-00007; not shown: human IgG2 heavy chain constant region, isoallotype IGHG2*06; human kappa light chain constant region (vector pFUSE2-CLIg-hk)
B7: PUMA 1 human IgG1-01v2 isoallotype (antibody)
heavy: B1 heavy
light: B1 light
notes: Isoallotype named in CLM-00007; also called IGHG1*01v2; not shown: human IgG1 heavy chain constant region, isoallotype IGHG1*01v2; human kappa light chain constant region (vector pFUSE2-CLIg-hk)
B8: PUMA 1 human IgG1 (canonical, isoallotype IgG1-01) (antibody)
heavy: not shown
light: B1 light
notes: also called PUMA1-IgG1; PUMA 1 IgG1; not shown: human kappa light chain constant region (vector pFUSE2-CLIg-hk)
B9: PUMA 1 human IgG3-03 isoallotype (antibody)
heavy: B1 heavy
light: B1 light
notes: also called PUMA1-IgG3-03; not shown: human kappa light chain constant region (vector pFUSE2-CLIg-hk)
B10: PUMA 1 human IgG1-08 isoallotype (antibody)
heavy: B1 heavy
light: B1 light
notes: Isoallotype named in CLM-00007; not shown: human IgG1 heavy chain constant region, isoallotype IGHG1*08; human kappa light chain constant region (vector pFUSE2-CLIg-hk)
B11: PUMA 1 human IgG1-07 isoallotype (antibody)
heavy: B1 heavy
light: B1 light
notes: Isoallotype named in CLM-00007; not shown: human IgG1 heavy chain constant region, isoallotype IGHG1*07; human kappa light chain constant region (vector pFUSE2-CLIg-hk)
B12: PUMA 1 human IgG2 (canonical, isoallotype IgG2-01) (antibody)
heavy: EVQLQQSGPELVKPGASVKMSCKASGYTFTDYYMKWVKQSHGKSLEWIGDLNPNNGDTFYNQKFKGKATLTVDKSSSTAYIQLNSLTSEDSAVYYCAREAGSSFGSSCNYWGQGTTLTVSASTKGPSVFPLAPCSRSTSESTAALGCLVKDYFPEPVTVSWNSGALTSGVHTFPAVLQSSGLYSLSSVVTVPSSNFGTQTYTCNVDHKPSNTKVDKTVERKCCVECPPCPAPPVAGPSVFLFPPKPKDTLMISRTPEVTCVVVDVSHEDPEVQFNWYVDGVEVHNAKTKPREEQFNSTFRVVSVLTVVHQDWLNGKEYKCKVSNKGLPAPIEKTISKTKGQPREPQVYTLPPSREEMTKNQVSLTCLVKGFYPSDIAVEWESNGQPENNYKTTPPMLDSDGSFFLYSKLTVDKSRWQQGNVFSCSVMHEALHNHYTQKSLSLSPGK
light: B1 light
notes: also called PUMA1-IgG2; PUMA 1 IgG2; not shown: human kappa light chain constant region (vector pFUSE2-CLIg-hk)
B13: PUMA 1 human IgG4 (canonical, isoallotype IgG4-01) (antibody)
heavy: EVQLQQSGPELVKPGASVKMSCKASGYTFTDYYMKWVKQSHGKSLEWIGDLNPNNGDTFYNQKFKGKATLTVDKSSSTAYIQLNSLTSEDSAVYYCAREAGSSFGSSCNYWGQGTTLTVSASTKGPSVFPLAPCSRSTSESTAALGCLVKDYFPEPVTVSWNSGALTSGVHTFPAVLQSSGLYSLSSVVTVPSSSLGTKTYTCNVDHKPSNTKVDKRVESKYGPPCPSCPAPEFLGGPSVFLFPPKPKDTLMISRTPEVTCVVVDVSQEDPEVQFNWYVDGVEVHNAKTKPREEQFNSTYRVVSVLTVLHQDWLNGKEYKCKVSNKGLPSSIEKTISKAKGQPREPQVYTLPPSQEEMTKNQVSLTCLVKGFYPSDIAVEWESNGQPENNYKTTPPVLDSDGSFFLYSRLTVDKSRWQEGNVFSCSVMHEALHNHYTQKSLSLSPGK
light: B1 light
notes: also called PUMA1-IgG4; PUMA 1 IgG4; not shown: human kappa light chain constant region (vector pFUSE2-CLIg-hk)
B14: PUMA 1 human IgG1-04v2 isoallotype (antibody)
heavy: B1 heavy
light: B1 light
notes: Isoallotype named in CLM-00007; also called IGHG1*04v2; not shown: human IgG1 heavy chain constant region, isoallotype IGHG1*04v2; human kappa light chain constant region (vector pFUSE2-CLIg-hk)
B15: PUMA 1 human IgG2-02 isoallotype (antibody)
heavy: B1 heavy
light: B1 light
notes: Isoallotype named in CLM-00007; not shown: human IgG2 heavy chain constant region, isoallotype IGHG2*02; human kappa light chain constant region (vector pFUSE2-CLIg-hk)

Substitutions are numbered along the chain they refer to.

One test deals with T1, human Kell glycoprotein, k form (KEL2). The test is described as follows: flow cytometry on human K-k+ RBCs. On the technique in general: In flow cytometry, cells or beads pass a laser one at a time.
Regarding B1, the binding result was “no binding”.

Take B2: the binding result is on record as “no binding”. Regarding B3, the binding result was “no binding”. The same measure, in the same setting: in the case of B4 it was “no binding”; in that of B5, “no binding”. In the case of B6, the binding result is on record as “no binding”. On the same count and under the same terms, in the case of B7 it was “no binding”; in that of B8, “no binding”; in that of B9, “no binding”. In the case of B10, the binding result is given as “no binding”. As for B11, the binding result is “no binding”. Turning to B12, the binding result is “no binding”. For the molecule B13, the binding result is given as “no binding”. Regarding B14, the binding result is recorded as “no binding”. Turning to B15, the binding result is recorded as “no binding”.

Another test deals with T2, human Kell glycoprotein, K form (KEL1). The test can be described thus: flow cytometry on human K+k+ RBCs, detected with polyclonal anti-IgG. As to the method:
Flow cytometry consisted of incubating test RBCs with PUMA 1 variants, followed by the anti-IgG being evaluated, followed by a detection reagent. Test RBCs included RBCs from K mice, wild-type mice, and reagent RBCs from humans with the phenotype of (K+k+) or (K−k+). Test RBCs were resuspended in 50 microliters of supernatants of PUMA 1 isoallotypes; in some cases a 1/10 dilution in phosphate buffered saline (PBS) was used. For purified IgG1-IgG4 PUMA 1, the antibodies were diluted in PBS at the indicated concentrations. The tested anti-IgG reagents were used undiluted. Detection reagents consisted of donkey anti-rabbit conjugated to phycoerythrin at a 1/200 dilution (Affymetrix cat #12-4739-81, Santa Clara, Calif.), goat anti-mouse IgM conjugated to allophycocyanin at a 1/100 dilution (BD Biosciences, cat #550826, San Jose, Calif.), and goat anti-mouse Igs conjugated to allophycocyanin at a 1/100 dilution (SouthernBiotech cat #1020-11s, Birmingham, Ala.). All anti-IgG subclass antibodies were conjugated to phycoerythrin, were purchased from SouthernBiotech (catalog numbers 9056-09, 9070-09, 9210-09, 9200-09), and were used at a dilution of 1.200. All incubations were performed for 30 min at room temperature, followed by three washes with PBS. All flow cytometry was performed on an Accuri 4 color cytometer (BD biosciences, San Jose Calif.) and all data was analyzed with Flo-Jo version 10.
To assess the sensitivity of commercially available anti-IgG preparations for different human IgG subclasses bound to RBCs, K+k+ RBCs were first incubated with PUMA 1 of the different human IgG subclasses, followed by incubation with anti-IgG. Treated RBCs were then stained with a fluorescently labeled antibody specific for the species in which the anti-IgG was generated (and non-reactive with human IgG). For each anti-IgG, the same secondary antibody was used to detect binding of the anti-IgG to each human PUMA 1 IgG subclass. To assess relative sensitivity, titrations of each PUMA 1 IgG subclass were carried out and samples were analyzed by flow cytometry using mean fluorescent intensity (MFI) to quantify staining (FIGS. 28A, 28B).
Take B1: the binding result is reported as “binds”. The same measure, in the same setting: in the case of B2 it was “binds”. On to B3, for which the binding result is on record as “binds”.

Turning to B4, the binding result was “binds”.

As for B6, the binding result is on record as “binds”.

On to B7, for which the binding result was “binds”. In the case of B9, the binding result is “binds”. With B10, the binding result is “binds”.

For B11, the binding result is “binds”. Consider B14, for which the binding result is listed as “binds”. Turning to B15, the binding result is on record as “binds”.
